# B1: unnamed (parent)
# chain 1: VGDDSGGFSTTVSTEQNVPDPQVGITTMKDLKGKANRGKMDVSGVQAPVGAITTIEDPVLAKKVPETFPELKPGESRHTSDHMSIYKFMGRSHFLCTFTFNSNNKEYTFPITLSSTSNPPHGLPSTLRWFFNLFQLYRGPLDLTIIITGATDVDGMAWFTPVGLAVDTPWVEKESALSIDYKTALGAVRFNTRRTGNIQIRLPWYSYLYAVSGALDGLGDKTDSTFGLVSIQIANYNHSDEYLSFSCYLSVTEQSEFYFPRAPLNSNAMLSTESMMSRIAAGDLESSVDDPRSEEDKRFESHIECRKPYKELRLEVGKQRLKYAQEELSNEVLPPPRKMKGLFSQ
# chain 2: MAVSESQLKKMVSKYKYRDLTVRETVNVITLYKDLKPVLDSYVFNDGSSRELMNLTGTIPVPYRGNTYNIPICLWLLDTYPYNPPICFVKPTSSMTIKTGKHVDANGKIYLPYLHEWKHPQSDLLGLIQVMIVVFGDEPPVFSRPISASYPPYQATGPPNTSYMPGMPGGISPYPSGYPPNPSGYPGCPYPPGGPYPATTSSQYPSQPPVTTVGPSRDGTISEDTIRASLISAVSDKLRWRMKEEMDRAQAELNALKRTEEDLKKGHQKLEEMVTRLDQEVAEVDKNIELLKKKDEELSSALEKMENQSENNDIDEVIIPTAPLYKQILNLYAEENAIEDTIFYLGEALRRGVIDLDVFLKHVRLLSRKQFQLRALMQKARKTAGLSDLY
# B2: unnamed (parent)
# chain 1: B1 chain 1
# chain 2: not shown
# B3: unnamed (parent)
# chain 1: B1 chain 1
# chain 2: MATFISVQLKKTSEVDLAKPLVKFIQQTYPSGGEEQAQYCRAAEELSKLRRAAVGRPLDKHEGALETLLRYYDQICSIEPKFPFSENQICLTFTWKDAFDKGSLFGGSVKLALASLGYEKSCVLFNCAALASQIAAEQNLDNDEGLKIAAKHYQFASGAFLHIKETVLSALSREPTVDISPDTVGTLSLIMLAQAQEVFFLKATRDKMKDAIIAKLANQAADYFGDAFKQCQYKDTLPKEVFPVLAAKHCIMQANAEYHQSILAKQQKKFGEEIARLQHAAELIKTVASRYDEYVNVKDFSDKINRALAAAKKDNDFIYHDRVPDLKDLDPIGKATLVKSTPVNVPISQKFTDLFEKMVPVSVQQSLAAYNQRKADLVNRSIAQMREATTLANGVLASLNLPAAIEDVSGDTVPQSILTKSRSVIEQGGIQTVDQLIKELPELLQRNREILDESLRLLDEEEATDNDLRAKFKERWQRTPSNELYKPLRAEGTNFRTVLDKAVQADGQVKECYQSHRDTIVLLCKPEPELNAAIPSANPAKTMQGSEVVNVLKSLLSNLDEVKKEREGLENDLKSVNFDMTSKFLTALAQDGVINEEALSVTELDRVYGGLTTKVQESLKKQEGLLKNIQVSHQEFSKMKQSNNEANLREEVLKNLATAYDNFVELVANLKEGTKFYNELTEILVRFQNKCSDIVFARKTERDELLKDLQQSIAREPSAPSIPTPAYQSSPAGGHAPTPPTPAPRTMPPTKPQPPARPPPPVLPANRAPSATAPSPVGAGTAAPAPSQTPGSAPPPQAQGPPYPTYPGYPGYCQMPMPMGYNPYAYGQYNMPYPPVYHQSPGQAPYPGPQQPSYPFPQPPQQSYYPQQ
# Variants of: B1
# Test: protein-fragment complementation assay (split Gaussia luciferase, GLuc2 bait / GLuc1 prey)
# Settings: with partner chain of the complex shown;; read off a plot
row,Variant,response (Log2 normalized LU)
1,chain 1 Y309A K310A E311A L312A,4.4

# Variants of: B2
# Test: as above
# Settings: with partner chain of the complex shown;; read off a plot
row,Variant,response (Log2 normalized LU)
1,chain 1 Y309A K310A E311A L312A,3

# Variants of: B3
# Test: as above
# Settings: with partner chain of the complex shown;; read off a plot
row,Variant,response (Log2 normalized LU)
1,chain 1 Y309A K310A E311A L312A,4.7

# From publication PMC9410543
